Molecular target: PFV RNase H wt (prototype foamy virus, UniProt P14350 591-751)
Test: fluorescence anisotropy; 25 nM substrate; Fluorescence anisotropy: 25 nM substrate, excitation 652 nm, emission 673 nm; buffer, salt, pH and temperature not given (as described in ref 5)
Conditions: protein: recombinant; label: DY647 at 5' end of DNA strand; blunt

B1: 10/10-mer RNA/5'-DY647-DNA (DNA:RNA)
RNA: GCGACACCUG
DNA: CAGGTGTCGC
Kd: 23 ± 3 µM
